Where two headings read alike, the source gives them in different places.
Tests used:
[1] = molecular target: T1, Dpo4 (SsoDpo4, Y-family DNA polymerase) (Sulfolobus solfataricus, UniProt Q97W02 1-352); assay: fluorescence anisotropy
T1 sequence: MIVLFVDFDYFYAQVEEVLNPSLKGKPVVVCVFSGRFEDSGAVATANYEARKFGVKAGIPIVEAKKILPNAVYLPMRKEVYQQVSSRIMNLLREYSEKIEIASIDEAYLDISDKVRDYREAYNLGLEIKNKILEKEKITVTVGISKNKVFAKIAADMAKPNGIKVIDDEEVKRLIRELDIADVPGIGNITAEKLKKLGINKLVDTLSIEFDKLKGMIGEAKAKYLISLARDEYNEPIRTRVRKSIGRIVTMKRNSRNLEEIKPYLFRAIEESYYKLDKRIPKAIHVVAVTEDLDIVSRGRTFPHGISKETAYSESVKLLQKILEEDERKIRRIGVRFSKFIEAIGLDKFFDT

[2] = molecular target: T1, Dpo4 (SsoDpo4, Y-family DNA polymerase); assay: fluorescence anisotropy; remark: listed apart in the source

TTTTTTTTTTCCCGGGCCGGCGTTTCGCCGGCCCGGG (structured_DNA) [37-nt hairpin primer-template, 5'-Cy3]
Kd [1]: 176 ± 10 nM | Kd [2]: 140 ± 66 nM

From PMC3477848 (Biochemistry, 2012)
